This test deals with papain (UniProt P00784).
Chain of UniProt P00784 (P00784 134-345): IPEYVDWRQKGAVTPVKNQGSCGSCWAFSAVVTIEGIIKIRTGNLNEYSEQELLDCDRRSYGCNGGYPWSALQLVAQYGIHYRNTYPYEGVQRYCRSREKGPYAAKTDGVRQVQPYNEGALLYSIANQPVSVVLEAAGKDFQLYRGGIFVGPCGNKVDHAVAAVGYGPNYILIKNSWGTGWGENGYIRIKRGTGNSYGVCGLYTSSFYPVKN

Take “recombinant cystatin-B from the red piranha Pygocentrus nattereri (natural protein)”: the inhibition of papain proteolytic activity on azocasein (absorbance); rCYST-B 0-80 μg (text: μg/μL) pre-incubated with 10 μL papain (0.1 μg/μL) at 28°C for 30 min; inhibition rises from 30 μg/μL was determined as 100%.

The values above are taken from publication PMC9203827.
